Assay results published in article PMC10172142.

Columns and labels:
[1] = biological target: CPR Wolfebacteria Fe-SodFM1, wild type (CPR Wolfebacteria (uncultured bacterial candidate phyla radiation)); test: SEC; analytical size exclusion chromatography, Superdex 200 10/300 increase, 20 mM Tris pH 7.5, 150 mM NaCl, calibrated with molecular weight standards
[2] = biological target: CPR Wolfebacteria Fe-SodFM1, wild type (CPR Wolfebacteria (uncultured bacterial candidate phyla radiation)); test: crystal structure; sitting drop vapour diffusion at 20 °C; 100 mM sodium acetate trihydrate pH 4.5, 25% wt/vol polyethylene glycol 3350; data collected at 100 K

stoichiometry N [1]: 2
stoichiometry N [2]: 2
Substance: CPR Wolfebacteria Fe-SodFM1, wild type (enzyme)
